Experimental data taken from patent US20150290319A1.

Legend:
[1] = target: Clostridium difficile toxin B (whole toxin B) (Clostridium difficile); test: cell-based or functional assay
[2] = target: Clostridium difficile toxin B (whole toxin B) (Clostridium difficile)

Substance | Mean EC50, neutralization of TcdB on HT-29 cells (xCELLigence) [1] | Kd [2] | koff [2] | kon [2] | IC50 (read off the curve) (MDX1388)
MDX1388 (antibody) | 125 µg/mL | 3.84 nM | 0.000139 s⁻¹ | 36200 M⁻¹ s⁻¹ | –
Clostridium difficile toxin B (whole toxin B) | – | – | – | – | 0.05 µg/mL
